Reference: US20210252150A1

What was measured:
[1] = target: HA of A/Solomon Islands/03/2006 (H1N1) (influenza A virus (H1N1))
[2] = target: HA of A/Texas/36/1991 (H1N1) (influenza A virus (H1N1))
[3] = target: HA of A/Texas/50/2012 (H3N2) (influenza A virus (H3N2))

Substance “rFluA-20 heavy chain mutant C101A (antibody)” has an EC50 [1] of 0.2 µg/mL, an EC50 [2] of 0.15 µg/mL and an EC50 [3] of 0.39 µg/mL.
“rFluA-20 light chain mutant N53A (antibody)” showed an EC50 [1] of 0.05 µg/mL, an EC50 [2] of 0.04 µg/mL and an EC50 [3] of 0.09 µg/mL.
With “rFluA-20 light chain mutant Q55A (antibody)” the EC50 fold over wild-type rFluA-20 [1] was greater than 100 fold and the EC50 [2] was 0.23 µg/mL.
